The text below walks through data of the RNAGym collection of RNA variant scans (doi:10.1093/molbev/msab373).

Sequences and labels used below:
B1: Azoarcus group I ribozyme (parent)
chain: GUGCCUUGCGCCGGGAAACCACGCAAGGGAUGGUGUCAAAUUCGGCGAAACCUAAGCGCCCGCCCGGGCGUAUGGCAACGCCGAGCCAAGCUUCGGCGCCUGCGCCGAUGAAGGUGUAGAGACUAGACGGCACCCACCUAAGGCAAACGCUAUGGUGAAGGCAUAGUCCAGGGAGUGGCGAAAGUCACACAAACCGG

This data set covers variants of B1. In words: reverse-splicing fitness (ratio to wild type); higher = more active; in vitro selection; Mg2+ level not given. Put shortly:
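An in vitro group I ribozyme library with randomized positions was T7-transcribed and gel-purified. In triplicate, 10 pmol RNA in EPPS pH 7.5 was reacted with 50 pmoles of a 30-nt RNA substrate for 1 h at 37 °C across several added MgCl2 levels (1–48 mM), then stopped with EDTA. Products were reverse transcribed from a substrate-complementary primer, PCR-amplified and sequenced (HiSeq 4000). Fitness is a variant's read proportion after selection over that before, normalised to wild type.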
Regarding A111C A120U A145G C150U C169G, the reverse-splicing fitness amounted to 0.0471.

Regarding A111C A120U A145G C150U C169A, the reverse-splicing fitness came to 0.00795.

As for A111C A120U A145G C150U C169U, the reverse-splicing fitness was 0.065.

For A111C A120U A145G U176G, the reverse-splicing fitness came out at 0.0786.

With A111C A120U A145G U176A, the reverse-splicing fitness is 0.221.

Take A111C A120U A145G U176C: the reverse-splicing fitness was found to be 0.277.

A111C A120U A145C C150A C169G U176C: the reverse-splicing fitness worked out at 0.00302.

For A111C A120U A145C C150A C169G U176G, the reverse-splicing fitness was 0.0024.

For A111C A120U A145C C150A C169G U176A, the reverse-splicing fitness is 0.00305.

On to A111C A120U A145G C150G C169A U176A, for which the reverse-splicing fitness was 0.0118.

For A111C A120U A145G C150G C169A U176C, the reverse-splicing fitness was 0.009.

On to A111C A120U A145G C150G C169A U176G, for which the reverse-splicing fitness came to 0.00554.

In the case of A111C A120U A145U C169A U176C, the reverse-splicing fitness came out at 0.00217.

In the case of A111C A120U A145U C169A U176A, the reverse-splicing fitness was found to be 0.00268.

In the case of A111C A120U A145U C169A U176G, the reverse-splicing fitness worked out at 0.00217.

A111C A120U A145C C150U: the reverse-splicing fitness worked out at 0.18.

Take A111C A120U A145C C150A: the reverse-splicing fitness came to 0.0314.

Regarding A111C A120U A145C C150G, the reverse-splicing fitness came to 0.0809.

Turning to A111C A120U A145C C150A C169A U176G, the reverse-splicing fitness is 0.00226.

On to A111C A120U A145C C150A C169A U176C, for which the reverse-splicing fitness was determined as 0.00233.

Take A111C A120U A145C C150A C169A U176A: the reverse-splicing fitness was 0.00259.

In the case of A111C A120U C150A C169U U176G, the reverse-splicing fitness amounted to 0.00274.

In the case of A111C A120U C150A C169U U176C, the reverse-splicing fitness turned out to be 0.0062.

As to A111C A120U C150A C169U U176A, the reverse-splicing fitness worked out at 0.00902.

Take A111C A120U A145C C150U U176A: the reverse-splicing fitness is 0.0649.

Consider A111C A120U A145C C150U U176G, for which the reverse-splicing fitness amounted to 0.0246.

With A111C A120U A145C C150U U176C, the reverse-splicing fitness is 0.0487.

With A111C A120U A145C C150G U176A, the reverse-splicing fitness amounted to 0.0207.

As for A111C A120U A145C C150G U176C, the reverse-splicing fitness is 0.0215.

For A111C A120U A145C C150G U176G, the reverse-splicing fitness was found to be 0.00459.

Regarding A111C A120U C150G U176C, the reverse-splicing fitness is 0.0217.

In the case of A111C A120U C150G U176A, the reverse-splicing fitness is 0.0127.

Take A111C A120U C150G U176G: the reverse-splicing fitness stood at 0.00356.

As for A111C A120U A145C C150G C169U U176A, the reverse-splicing fitness came to 0.00402.

For the variant A111C A120U A145C C150G C169U U176C, the reverse-splicing fitness came out at 0.00313.

A111C A120U A145C C150G C169U U176G: the reverse-splicing fitness came to 0.0023.

For the variant A111C A120U C150U C169A, the reverse-splicing fitness was found to be 0.00639.

A111C A120U C150U C169U: the reverse-splicing fitness stood at 0.0424.

On to A111C A120U C150U C169G, for which the reverse-splicing fitness came out at 0.0296.

Take A111C A120U A145U C150U C169G U176A: the reverse-splicing fitness worked out at 0.00509.

Take A111C A120U A145U C150U C169G U176G: the reverse-splicing fitness was 0.00261.

Turning to A111C A120U A145U C150U C169G U176C, the reverse-splicing fitness is 0.00885.

Consider A111C A120U A145U C150U U176G, for which the reverse-splicing fitness stood at 0.0348.

A111C A120U A145U C150U U176A: the reverse-splicing fitness was determined as 0.182.

Turning to A111C A120U A145U C150U U176C, the reverse-splicing fitness worked out at 0.215.

As to A111C A120U A145C C169A U176A, the reverse-splicing fitness worked out at 0.00217.

Take A111C A120U A145C C169A U176C: the reverse-splicing fitness was 0.00231.

Turning to A111C A120U A145C C169A U176G, the reverse-splicing fitness came to 0.00212.

In the case of A111C A120U A145U C150A C169U U176C, the reverse-splicing fitness was 0.0049.

In the case of A111C A120U A145U C150A C169U U176G, the reverse-splicing fitness stood at 0.00271.

For the variant A111C A120U A145U C150A C169U U176A, the reverse-splicing fitness turned out to be 0.00386.

For the variant A111C A120U C150U U176C, the reverse-splicing fitness came to 0.194.

As to A111C A120U C150U U176G, the reverse-splicing fitness amounted to 0.0367.

For A111C A120U C150U U176A, the reverse-splicing fitness stood at 0.145.

A111C A120U A145G C169A U176C: the reverse-splicing fitness was determined as 0.00408.

Regarding A111C A120U A145G C169A U176G, the reverse-splicing fitness amounted to 0.00216.

A111C A120U A145G C169A U176A: the reverse-splicing fitness came to 0.00375.

Turning to A111C A120G C150U, the reverse-splicing fitness was 0.0912.

As to A111C A120G C150G, the reverse-splicing fitness came to 0.0159.

As to A111C A120G C150A, the reverse-splicing fitness amounted to 0.0211.

As to A111C A120U A145U C150G C169A U176C, the reverse-splicing fitness is 0.0035.

With A111C A120U A145U C150G C169A U176A, the reverse-splicing fitness was found to be 0.00343.

Consider A111C A120U A145U C150G C169A U176G, for which the reverse-splicing fitness is 0.00296.

On to A111C A120U A145G C150G C169G U176G, for which the reverse-splicing fitness was determined as 0.00386.

A111C A120U A145G C150G C169G U176C: the reverse-splicing fitness was found to be 0.00876.

On to A111C A120U A145G C150G C169G U176A, for which the reverse-splicing fitness was 0.00935.

For A111C A120G A145U C150U C169G U176A, the reverse-splicing fitness was 0.0211.

On to A111C A120G A145U C150U C169G U176C, for which the reverse-splicing fitness amounted to 0.0326.

As to A111C A120G A145U C150U C169G U176G, the reverse-splicing fitness turned out to be 0.00542.

For the variant A111C A120U A145C C169G U176A, the reverse-splicing fitness turned out to be 0.00676.

For A111C A120U A145C C169G U176C, the reverse-splicing fitness stood at 0.00626.

For A111C A120U A145C C169G U176G, the reverse-splicing fitness is 0.0018.

For the variant A111C A120U A145U C150U C169A U176C, the reverse-splicing fitness worked out at 0.00252.

In the case of A111C A120U A145U C150U C169A U176A, the reverse-splicing fitness turned out to be 0.00293.

Take A111C A120U A145U C150U C169A U176G: the reverse-splicing fitness came out at 0.00217.

As for A111C A120U A145U C169U U176A, the reverse-splicing fitness was found to be 0.0121.

Take A111C A120U A145U C169U U176G: the reverse-splicing fitness was 0.00286.

For the variant A111C A120U A145U C169U U176C, the reverse-splicing fitness was found to be 0.0216.

For the variant A111C A120U A145U C150A C169A U176A, the reverse-splicing fitness is 0.00258.

On to A111C A120U A145U C150A C169A U176G, for which the reverse-splicing fitness came out at 0.00209.

As to A111C A120U A145U C150A C169A U176C, the reverse-splicing fitness worked out at 0.00244.

With A111C A120G C150A C169G U176G, the reverse-splicing fitness was 0.00531.

Consider A111C A120G C150A C169G U176C, for which the reverse-splicing fitness was found to be 0.0245.
